Source: patent US20070020717A1

Legend:
Settings in all cases: chains peptide; modification not given
[1] = target: T1, GST-PDZ fusion protein, PDZ domain of MAST2 (Accession no. AB047005), Q6P0Q8; test: ELISA (G Assay)
T1 chain: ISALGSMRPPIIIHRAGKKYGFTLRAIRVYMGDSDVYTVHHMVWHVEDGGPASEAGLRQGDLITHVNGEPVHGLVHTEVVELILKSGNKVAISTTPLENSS

[2] = target: T2, GST-PDZ fusion protein, PDZ domain of SHANK1 (GID 7025450), D3YZU1; test: ELISA
T2 chain: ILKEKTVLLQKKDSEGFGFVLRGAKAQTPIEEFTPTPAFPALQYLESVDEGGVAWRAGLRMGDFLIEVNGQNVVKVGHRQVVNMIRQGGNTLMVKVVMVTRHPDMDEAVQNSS

[3] = target: T3, GST-PDZ fusion protein, PDZ domain of SHANK2 (GID 6049185), Q9UPX8; test: ELISA
T3 chain: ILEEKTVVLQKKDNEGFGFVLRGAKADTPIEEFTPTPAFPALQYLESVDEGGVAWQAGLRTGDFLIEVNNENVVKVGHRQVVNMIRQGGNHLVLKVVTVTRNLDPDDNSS

B1: Peptide 1957 (peptide)
chain: RRRSGLDDINPTVLLKERSTEL
What does the source list for B1?
EC50 [1]: 23.1 µM; EC50 [2]: 66.3 µM; EC50 [3]: 62 µM
